Measured values as given in the supplement of paper PMC5998384.

Legend:
HeLa Kyoto [1] = experiment: melting temperature (median over replicates), in situ; higher = more thermally stable
HeLa Kyoto [2] = experiment: solubility change mitosis vs G1/S (difference of NP-40 vs SDS log2 ratios) (log2 ratio difference); higher = more soluble in mitosis
HeLa Kyoto [3] = experiment: thermal stability score vs G1/S (z-score of summed log2 fold changes over temperatures); higher = more thermally stable than in G1/S
HeLa Kyoto [4] = experiment: solubility in G1/S (NP-40 vs SDS abundance) (log2 ratio); higher = more soluble; conditions: cell cycle stage: G1/S
[5] = cell cycle stage: early G1 (4.5 h after nocodazole release)
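Throughout, for melting temperature (median over replicates), in situ: HeLa Kyoto cells synchronized by double thymidine or nocodazole block, proteins quantified by TMT10plex mass spectrometry, three independent biological replicates.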
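Throughout, for solubility change mitosis vs G1/S (difference of NP-40 vs SDS log2 ratios): synchronized HeLa Kyoto cells (double thymidine block for G1/S, nocodazole release for mitosis), protein amounts in NP-40 versus SDS lysates quantified by mass spectrometry, three biological replicates.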
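Throughout, for solubility in G1/S (NP-40 vs SDS abundance): HeLa Kyoto cells arrested at G1/S by double thymidine block, proteins quantified by TMT10plex mass spectrometry in mild NP-40 versus SDS extracts, three biological replicates.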
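Throughout, for thermal stability score vs G1/S (z-score of summed log2 fold changes over temperatures): synchronized HeLa Kyoto cells, proteins quantified by TMT10plex mass spectrometry, three biological replicates, mitosis taken 0.5 h after nocodazole release, G1/S directly after double thymidine block.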

Sequence	melting temperature (HeLa Kyoto [1]; cell cycle stage: G1/S)	melting temperature (HeLa Kyoto [1]; cell cycle stage: mitosis)	solubility change mitosis (log2) (HeLa Kyoto [2])	thermal stability score (HeLa Kyoto [3]; [5])	thermal stability score (HeLa Kyoto [3]; cell cycle stage: mitosis)	solubility in G1/S (log2) (HeLa Kyoto [4])
MGFLQLLVVAVLASEHRVAGAAEVFGNSSEGLIEFSVGKFRYFELNRPFPEEAILHDISSNVTFLIFQIHSQYQNTTVSFSPTLLSNSSETGTASGLVFILRPEQSTCTWYLGTSGIQPVQNMAILLSYSERDPVPGGCNLEFDLDIDPNIYLEYNFFETTIKFAPANLGYARGVDPPPCDAGTDQDSRWRLQYDVYQYFLPENDLTEEMLLKHLQRMVSVPQVKASALKVVTLTANDKTSVSFSSLPGQGVIYNVIVWDPFLNTSAAYIPAHTYACSFEAGEGSCASLGRVSSKVFFTLFALLGFFICFFGHRFWKTELFFIGFIIMGFFFYILITRLTPIKYDVNLILTAVTGSVGGMFLVAVWWRFGILSICMLCVGLVLGFLISSVTFFTPLGNLKIFHDDGVFWVTFSCIAILIPVVFMGCLRILNILTCGVIGSYSVVLAIDSYWSTSLSYITLNVLKRALNKDFHRAFTNVPFQTNDFIILAVWGMLAVSGITLQIRRERGRPFFPPHPYKLWKQERERRVTNILDPSYHIPPLRERLYGRLTQIKGLFQKEQPAGERTPLLL [TM7SF3]	56.8 °C	55.3 °C	-0.244	-2.81	-4.36	-0.147
MGGAVVDEGPTGVKAPDGGWGWAVLFGCFVITGFSYAFPKAVSVFFKELIQEFGIGYSDTAWISSILLAMLYGTGPLCSVCVNRFGCRPVMLVGGLFASLGMVAASFCRSIIQVYLTTGVITGLGLALNFQPSLIMLNRYFSKRRPMANGLAAAGSPVFLCALSPLGQLLQDRYGWRGGFLILGGLLLNCCVCAALMRPLVVTAQPGSGPPRPSRRLLDLSVFRDRGFVLYAVAASVMVLGLFVPPVFVVSYAKDLGVPDTKAAFLLTILGFIDIFARPAAGFVAGLGKVRPYSVYLFSFSMFFNGLADLAGSTAGDYGGLVVFCIFFGISYGMVGALQFEVLMAIVGTHKFSSAIGLVLLMEAVAVLVGPPSGGKLLDATHVYMYVFILAGAEVLTSSLILLLGNFFCIRKKPKEPQPEVAAAEEEKLHKPPADSGVDLREVEHFLKAEPEKNGEVVHTPETSV [SLC16A3]	60.1 °C	61.9 °C	-0.161	-4.29	-4.22	0.106
MGGFFSSIFSSLFGTREMRILILGLDGAGKTTILYRLQVGEVVTTIPTIGFNVETVTYKNLKFQVWDLGGQTSIRPYWRCYYSNTDAVIYVVDSCDRDRIGISKSELVAMLEEEELRKAILVVFANKQDMEQAMTSSEMANSLGLPALKDRKWQIFKTSATKGTGLDEAMEWLVETLKSRQ [ARL1]	50.3 °C	50.9 °C	-0.202	2.08	-0.342	-0.143
MGGKNKKHKAPAAAVVRAAVSASRAKSAEAGIAGEAQSKKPVSRPATAAAAAAGSREPRVKQGPKIYSFNSTNDSSGPANLDKSILKVVINNKLEQRIIGVINEHKKQNNDKGMISGRLTAKKLQDLYMALQAFSFKTKDIEDAMTNTLLYGGDLHSALDWLCLNLSDDALPEGFSQEFEEQQPKSRPKFQSPQIQATISPPLQPKTKTYEEDPKSKPKKEEKNMEVNMKEWILRYAEQQNEEEKNENSKSLEEEEKFDPNERYLHLAAKLLDAKEQAATFKLEKNKQGQKEAQEKIRKFQREMETLEDHPVFNPAMKISHQQNERKKPPVATEGESALNFNLFEKSAAATEEEKDKKKEPHDVRNFDYTARSWTGKSPKQFLIDWVRKNLPKSPNPSFEKVPVGRYWKCRVRVIKSEDDVLVVCPTILTEDGMQAQHLGATLALYRLVKGQSVHQLLPPTYRDVWLEWSDAEKKREELNKMETNKPRDLFIAKLLNKLKQQQQQQQQHSENKRENSEDPEESWENLVSDEDFSALSLESANVEDLEPVRNLFRKLQSTPKYQKLLKERQQLPVFKHRDSIVETLKRHRVVVVAGETGSGKSTQVPHFLLEDLLLNEWEASKCNIVCTQPRRISAVSLANRVCDELGCENGPGGRNSLCGYQIRMESRACESTRLLYCTTGVLLRKLQEDGLLSNVSHVIVDEVHERSVQSDFLLIILKEILQKRSDLHLILMSATVDSEKFSTYFTHCPILRISGRSYPVEVFHLEDIIEETGFVLEKDSEYCQKFLEEEEEVTINVTSKAGGIKKYQEYIPVQTGAHADLNPFYQKYSSRTQHAILYMNPHKINLDLILELLAYLDKSPQFRNIEGAVLIFLPGLAHIQQLYDLLSNDRRFYSERYKVIALHSILSTQDQAAAFTLPPPGVRKIVLATNIAETGITIPDVVFVIDTGRTKENKYHESSQMSSLVETFVSKASALQRQGRAGRVRDGFCFRMYTRERFEGFMDYSVPEILRVPLEELCLHIMKCNLGSPEDFLSKALDPPQLQVISNAMNLLRKIGACELNEPKLTPLGQHLAALPVNVKIGKMLIFGAIFGCLDPVATLAAVMTEKSPFTTPIGRKDEADLAKSALAMADSDHLTIYNAYLGWKKARQEGGYRSEITYCRRNFLNRTSLLTLEDVKQELIKLVKAAGFSSSTTSTSWEGNRASQTLSFQEIALLKAVLVAGLYDNVGKIIYTKSVDVTEKLACIVETAQGKAQVHPSSVNRDLQTHGWLLYQEKIRYARVYLRETTLITPFPVLLFGGDIEVQHRERLLSIDGWIYFQAPVKIAVIFKQLRVLIDSVLRKKLENPKMSLENDKILQIITELIKTENN [DHX29]	51.7 °C	50.7 °C	0.00585	-0.474	-0.738	-0.444
MGGLFSRWRTKPSTVEVLESIDKEIQALEEFREKNQRLQKLWVGRLILYSSVLYLFTCLIVYLWYLPDEFTARLAMTLPFFAFPLIIWSIRTVIIFFFSKRTERNNEALDDLKSQRKKILEEVMEKETYKTAKLILERFDPDSKKAKECEPPSAGAAVTARPGQEIRQRTAAQRNLSPTPASPNQGPPPQVPVSPGPPKDSSAPGGPPERTVTPALSSNVLPRHLGSPATSVPGMGLHPPGPPLARPILPRERGALDRIVEYLVGDGPQNRYALICQQCFSHNGMALKEEFEYIAFRCAYCFFLNPARKTRPQAPRLPEFSFEKRQVVEGSSSVGPLPSGSVLSSDNQFNEESLEHDVLDDNTEQTDDKIPATEQTNQVIEKASDSEEPEEKQETENEEASVIETNSTVPGADSIPDPELSGESLTAE	55 °C	56.9 °C	-0.0648	-1.47	-0.475	-0.311
MGGPRGAGWVAAGLLLGAGACYCIYRLTRGRRRGDRELGIRSSKSAGALEEGTSEGQLCGRSARPQTGGTWESQWSKTSQPEDLTDGSYDDVLNAEQLQKLLYLLESTEDPVIIERALITLGNNAAFSVNQAIIRELGGIPIVANKINHSNQSIKEKALNALNNLSVNVENQIKIKIYISQVCEDVFSGPLNSAVQLAGLTLLTNMTVTNDHQHMLHSYITDLFQVLLTGNGNTKVQVLKLLLNLSENPAMTEGLLRAQVDSSFLSLYDSHVAKEILLRVLTLFQNIKNCLKIEGHLAVQPTFTEGSLFFLLHGEECAQKIRALVDHHDAEVKEKVVTIIPKI [ARMC10]	50.8 °C	49.7 °C	-0.108	0.978	1.04	0.226
MGGTTSTRRVTFEADENENITVVKGIRLSENVIDRMKESSPSGSKSQRYSGAYGASVSDEELKRRVAEELALEQAKKESEDQKRLKQAKELDRERAAANEQLTRAILRERICSEEERAKAKHLARQLEEKDRVLKKQDAFYKEQLARLEERSSEFYRVTTEQYQKAAEEVEAKFKRYESHPVCADLQAKILQCYRENTHQTLKCSALATQYMHCVNHAKQSMLEKGG [CHCHD3]	54.6 °C	54.2 °C	0.291	-2.54	-6	0.229
MGHRFLRGLLTLLLPPPPLYTRHRMLGPESVPPPKRSRSKLMAPPRIGTHNGTFHCDEALACALLRLLPEYRDAEIVRTRDPEKLASCDIVVDVGGEYDPRRHRYDHHQRSFTETMSSLSPGKPWQTKLSSAGLIYLHFGHKLLAQLLGTSEEDSMVGTLYDKMYENFVEEVDAVDNGISQWAEGEPRYALTTTLSARVARLNPTWNHPDQDTEAGFKRAMDLVQEEFLQRLDFYQHSWLPARALVEEALAQRFQVDPSGEIVELAKGACPWKEHLYHLESGLSPPVAIFFVIYTDQAGQWRIQCVPKEPHSFQSRLPLPEPWRGLRDEALDQVSGIPGCIFVHASGFIGGHRTREGALSMARATLAQRSYLPQIS [C12ORF10]	53.8 °C	53.9 °C	-0.074	-0.294	-1.46	0.418
MGILEKISEIEKEIARTQKNKATEYHLGLLKAKLAKYRAQLLEPSKSASSKGEGFDVMKSGDARVALIGFPSVGKSTFLSLMTSTASEAASYEFTTLTCIPGVIEYKGANIQLLDLPGIIEGAAQGKGRGRQVIAVARTADVIIMMLDATKGEVQRSLLEKELESVGIRLNKHKPNIYFKPKKGGGISFNSTVTLTQCSEKLVQLILHEYKIFNAEVLFREDCSPDEFIDVIVGNRVYMPCLYVYNKIDQISMEEVDRLARKPNSVVISCGMKLNLDYLLEMLWEYLALTCIYTKKRGQRPDFTDAIILRKGASVEHVCHRIHRSLASQFKYALVWGTSTKYSPQRVGLTHTMEHEDVIQIVKK [DRG2]	51.9 °C	51.6 °C	-0.113	-0.377	-0.907	0.0131
